Assay results as given in US20210388043A1.

Molecular target: CD47 (human) (UniProt Q08722)
Experiment: cell binding (FACS); PC-3 cells
Details: Fc fusion

SIRPαD1-Fc
EC50: 0.58 µg/mL
